Values belong to the molecule of their own block, whether it stands above or below them.
Tests used:
[1] = test system: WT (Col-0) and brl3-2 mutant seedlings; experiment: Bikinin sensitivity assay (hypocotyl elongation); format: in vivo, Arabidopsis thaliana; details: 6 d, LD
Procedure: Chemicals used include; 1 μM BRZ220 (Gift from T. Nakano, RIKEN, Japan) or 50 μM Bikinin (200980, Sigma-Aldrich) for 6-d in control (long days, 22° C.) or high temperature (long days, 28° C.) conditions. Hypocotyl length were measured using the Image J software (v.1.48v) (https-/imagej.nih.gov/ij/).
For hypocotyl elongation analysis, seedlings were grown in horizontally placed 0.5MS− media plates in controlled growth conditions (Aralab 600; long days 16:8h day/night cycle 60% relative humidity and 50-70 μmol m^−2 s^−1 of cool-white fluorescent light) at 22° C. or 28° C. temperature for 5-7d. Plates were photographed and hypocotyl length were measured using the ImageJ software (v.1.48v) (https:/imagej.nih.gov/ij/). For root growth analysis, seedlings were grown in vertically placed 0.5MS− media plates in controlled growth conditions (Aralab 600; long days 16:8h day/night cycle; 22° C.). MyROOT software (Betegón-Putzé et al., 2019) was used to compare root growth of plants. Lateral roots were manually counted under a stereozoom microscope in 9-d-old seedlings.
Seedlings were grown in horizontally placed 0.5MS− media supplemented with or without 50 μM Bikinin (200980, Sigma-Aldrich) for 6-d in control (long days, 22° C.) or high temperature (long days, 28° C.) conditions. Hypocotyl length were measured using the Image J software (v.1.48v) (https://imagej.nih.gov/ii/).

[2] = target: T1, BRL3T1025A, phospho-dead version of the BRL3 kinase domain
T1 chain: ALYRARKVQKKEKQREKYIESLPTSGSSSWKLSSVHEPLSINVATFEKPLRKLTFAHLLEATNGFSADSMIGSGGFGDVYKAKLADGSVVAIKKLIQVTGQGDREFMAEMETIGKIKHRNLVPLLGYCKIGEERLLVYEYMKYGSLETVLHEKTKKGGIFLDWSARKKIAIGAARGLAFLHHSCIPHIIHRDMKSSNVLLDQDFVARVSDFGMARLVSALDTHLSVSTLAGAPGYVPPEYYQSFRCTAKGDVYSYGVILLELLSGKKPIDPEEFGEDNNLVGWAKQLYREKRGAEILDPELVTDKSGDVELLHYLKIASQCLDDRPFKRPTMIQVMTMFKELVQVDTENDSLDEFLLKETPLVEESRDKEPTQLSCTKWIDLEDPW

[3] = target: T2, KIN7 kinase domain, GST- or MBP-tagged, from E. coli
T2 chain: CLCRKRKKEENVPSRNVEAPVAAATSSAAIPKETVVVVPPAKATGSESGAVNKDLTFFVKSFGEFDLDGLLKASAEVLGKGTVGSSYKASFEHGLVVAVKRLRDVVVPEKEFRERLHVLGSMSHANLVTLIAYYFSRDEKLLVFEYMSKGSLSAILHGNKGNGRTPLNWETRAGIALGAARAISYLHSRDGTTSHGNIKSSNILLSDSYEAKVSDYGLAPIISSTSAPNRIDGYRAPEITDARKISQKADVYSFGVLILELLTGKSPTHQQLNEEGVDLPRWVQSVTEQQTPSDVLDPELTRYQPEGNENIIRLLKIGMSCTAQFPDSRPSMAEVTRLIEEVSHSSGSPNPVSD

[4] = target: T3, BRI1 (BRASSINOSTEROID … 1), BiFC negative control (Arabidopsis, UniProt O22476 24-1196); experiment: BiFC (split YFP) in Nicotiana benthamiana leaves, confocal microscopy
T3 construct: whole, on cells; not shown: the construct of this control is not described
T3 sequence (looked up): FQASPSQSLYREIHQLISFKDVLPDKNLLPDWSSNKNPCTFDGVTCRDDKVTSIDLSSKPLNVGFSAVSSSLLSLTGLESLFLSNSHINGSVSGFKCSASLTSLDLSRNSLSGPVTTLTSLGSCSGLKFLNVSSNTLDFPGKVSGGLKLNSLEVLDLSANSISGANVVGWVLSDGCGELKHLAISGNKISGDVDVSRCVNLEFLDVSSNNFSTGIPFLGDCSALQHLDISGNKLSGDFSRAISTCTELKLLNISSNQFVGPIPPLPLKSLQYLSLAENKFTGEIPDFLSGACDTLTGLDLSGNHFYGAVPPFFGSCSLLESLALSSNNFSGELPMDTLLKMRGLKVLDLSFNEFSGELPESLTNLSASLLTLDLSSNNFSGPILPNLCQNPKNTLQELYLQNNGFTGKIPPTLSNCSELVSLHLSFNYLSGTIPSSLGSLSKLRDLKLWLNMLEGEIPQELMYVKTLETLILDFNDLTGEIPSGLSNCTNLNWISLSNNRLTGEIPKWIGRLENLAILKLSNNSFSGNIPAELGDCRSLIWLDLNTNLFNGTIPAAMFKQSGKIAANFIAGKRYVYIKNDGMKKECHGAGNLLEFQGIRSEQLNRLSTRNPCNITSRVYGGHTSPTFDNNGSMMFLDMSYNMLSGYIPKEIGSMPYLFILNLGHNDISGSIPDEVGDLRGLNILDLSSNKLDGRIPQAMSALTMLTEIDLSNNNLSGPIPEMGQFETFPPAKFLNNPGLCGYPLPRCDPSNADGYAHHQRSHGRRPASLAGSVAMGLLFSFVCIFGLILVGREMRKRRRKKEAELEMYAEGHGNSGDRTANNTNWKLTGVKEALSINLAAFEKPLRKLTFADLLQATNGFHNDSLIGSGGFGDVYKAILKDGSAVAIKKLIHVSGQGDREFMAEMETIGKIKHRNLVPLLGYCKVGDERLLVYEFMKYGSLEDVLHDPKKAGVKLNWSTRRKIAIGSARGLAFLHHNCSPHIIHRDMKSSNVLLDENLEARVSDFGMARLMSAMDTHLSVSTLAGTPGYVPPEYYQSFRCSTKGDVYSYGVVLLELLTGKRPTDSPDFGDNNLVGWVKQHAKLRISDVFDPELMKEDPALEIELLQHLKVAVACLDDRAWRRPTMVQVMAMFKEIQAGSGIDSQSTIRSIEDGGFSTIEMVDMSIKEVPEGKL

Molecule: O=C(O)CCC(=O)Nc1ccc(Br)cn1 [Bikinin]
- hypocotyl elongation ([1]; 50 μM Bikinin in media, WT and brl3-2 mutant, control (22° C.) and high temperature (28° C.)): promote hypocotyl elongation
- rescue of brl3 conditional phenotypes (hypocotyl elongation) on elevated temperature ([1]; 50 μM Bikinin, brl3-2 mutant, 28° C.): rescued brl3 conditional phenotypes

B1: KIN7 kinase domain, GST- or MBP-tagged, from E. coli (protein)
chain: CLCRKRKKEENVPSRNVEAPVAAATSSAAIPKETVVVVPPAKATGSESGAVNKDLTFFVKSFGEFDLDGLLKASAEVLGKGTVGSSYKASFEHGLVVAVKRLRDVVVPEKEFRERLHVLGSMSHANLVTLIAYYFSRDEKLLVFEYMSKGSLSAILHGNKGNGRTPLNWETRAGIALGAARAISYLHSRDGTTSHGNIKSSNILLSDSYEAKVSDYGLAPIISSTSAPNRIDGYRAPEITDARKISQKADVYSFGVLILELLTGKSPTHQQLNEEGVDLPRWVQSVTEQQTPSDVLDPELTRYQPEGNENIIRLLKIGMSCTAQFPDSRPSMAEVTRLIEEVSHSSGSPNPVSD
- incorporation of 32P into BRL3 kinase (in vitro phosphorylation, autoradiography) [2]: KIN7 is not able to phosphorylate BRL3 domains given that the BRL3 phosphorylation pattern is lost when KIN7 is incubated with the phospho-dead version of BRL3 kinase

B2: BRL3 kinase domain, GST- or MBP-tagged, from E. coli (protein)
chain: ALYRARKVQKKEKQREKYIESLPTSGSSSWKLSSVHEPLSINVATFEKPLRKLTFAHLLEATNGFSADSMIGSGGFGDVYKAKLADGSVVAIKKLIQVTGQGDREFMAEMETIGKIKHRNLVPLLGYCKIGEERLLVYEYMKYGSLETVLHEKTKKGGIFLDWSARKKIAIGAARGLAFLHHSCIPHIIHRDMKSSNVLLDQDFVARVSDFGMARLVSALDTHLSVSTLAGTPGYVPPEYYQSFRCTAKGDVYSYGVILLELLSGKKPIDPEEFGEDNNLVGWAKQLYREKRGAEILDPELVTDKSGDVELLHYLKIASQCLDDRPFKRPTMIQVMTMFKELVQVDTENDSLDEFLLKETPLVEESRDKEPTQLSCTKWIDLEDPW
- incorporation of 32P into KIN7 kinase (in vitro phosphorylation, autoradiography) [3]: The image show and autoradiography revealing the incorporation of 32P into KIN7 kinase when incubated with BRL3

B3: BRL3T1025A, phospho-dead version of the BRL3 kinase domain (protein)
chain: ALYRARKVQKKEKQREKYIESLPTSGSSSWKLSSVHEPLSINVATFEKPLRKLTFAHLLEATNGFSADSMIGSGGFGDVYKAKLADGSVVAIKKLIQVTGQGDREFMAEMETIGKIKHRNLVPLLGYCKIGEERLLVYEYMKYGSLETVLHEKTKKGGIFLDWSARKKIAIGAARGLAFLHHSCIPHIIHRDMKSSNVLLDQDFVARVSDFGMARLVSALDTHLSVSTLAGAPGYVPPEYYQSFRCTAKGDVYSYGVILLELLSGKKPIDPEEFGEDNNLVGWAKQLYREKRGAEILDPELVTDKSGDVELLHYLKIASQCLDDRPFKRPTMIQVMTMFKELVQVDTENDSLDEFLLKETPLVEESRDKEPTQLSCTKWIDLEDPW
- incorporation of 32P into KIN7 kinase (in vitro phosphorylation, autoradiography) [3]: The phosphorylation in KIN7 kinase domain is lost when incubated with a phospho-dead version of BRL3, the BRL3T1025A

- binding result [4]: no binding
B4: BRL3 (BRASSINOSTEROID RECEPTOR LIKE 3), full length, fused to a half of YFP (BiFC construct) (receptor)
chain: RRLLSDDVNDTALLTAFKQTSIKSDPTNFLGNWRYGSGRDPCTWRGVSCSSDGRVIGLDLRNGGLTGTLNLNNLTALSNLRSLYLQGNNFSSGDSSSSSGCSLEVLDLSSNSLTDSSIVDYVFSTCLNLVSVNFSHNKLAGKLKSSPSASNKRITTVDLSNNRFSDEIPETFIADFPNSLKHLDLSGNNVTGDFSRLSFGLCENLTVFSLSQNSISGDRFPVSLSNCKLLETLNLSRNSLIGKIPGDDYWGNFQNLRQLSLAHNLYSGEIPPELSLLCRTLEVLDLSGNSLTGQLPQSFTSCGSLQSLNLGNNKLSGDFLSTVVSKLSRITNLYLPFNNISGSVPISLTNCSNLRVLDLSSNEFTGEVPSGFCSLQSSSVLEKLLIANNYLSGTVPVELGKCKSLKTIDLSFNALTGLIPKEIWTLPKLSDLVMWANNLTGGIPESICVDGGNLETLILNNNLLTGSLPESISKCTNMLWISLSSNLLTGEIPVGIGKLEKLAILQLGNNSLTGNIPSELGNCKNLIWLDLNSNNLTGNLPGELASQAGLVMPGSVSGKQFAFVRNEGGTDCRGAGGLVEFEGIRAERLEHFPMVHSCPKTRIYSGMTMYMFSSNGSMIYLDLSYNAVSGSIPLGYGAMGYLQVLNLGHNLLTGTIPDSFGGLKAIGVLDLSHNDLQGFLPGSLGGLSFLSDLDVSNNNLTGPIPFGGQLTTFPLTRYANNSGLCGVPLPPCSSGSRPTRSHAHPKKQSIATGMSAGIVFSFMCIVMLIMALYRARKVQKKEKQREKYIESLPTSGSSSWKLSSVHEPLSINVATFEKPLRKLTFAHLLEATNGFSADSMIGSGGFGDVYKAKLADGSVVAIKKLIQVTGQGDREFMAEMETIGKIKHRNLVPLLGYCKIGEERLLVYEYMKYGSLETVLHEKTKKGGIFLDWSARKKIAIGAARGLAFLHHSCIPHIIHRDMKSSNVLLDQDFVARVSDFGMARLVSALDTHLSVSTLAGTPGYVPPEYYQSFRCTAKGDVYSYGVILLELLSGKKPIDPEEFGEDNNLVGWAKQLYREKRGAEILDPELVTDKSGDVELLHYLKIASQCLDDRPFKRPTMIQVMTMFKELVQVDTENDSLDEFLLKETPLVEESRDKEPTQLSCTKWIDLEDPW
notes: also called BRL3 receptor; AT3G13380; not shown: half of YFP (YN or YC, both directions tested) from vectors pGTQL1211-YN / pGTQL1221-YC
